According to paper PMC8525636:

Tests used:
[1] = target: recombinant human IgA1-Fc CH2-CH3-TP, C471S mutant; test: SEC (size-exclusion chromatography), self-association into poly-hu-rIgA; settings: parent: est. 9.0; read off a plot
[2] = target: recombinant rat IgA-Fc segment CH2-CH3-TP, C311S mutant; test: SEC (size-exclusion chromatography), self-association into poly-rIgA; settings: parent: est. 32; read off a plot
[3] = target: recombinant rat IgA-Fc segment CH2-CH3-TP, C311/471S double mutant; test: as above; settings: parent: est. 32; read off a plot
[4] = target: recombinant rat IgA-Fc segment CH2-CH3-TP, C471S mutant; test: as above; settings: parent: est. 32; read off a plot

In the case of “recombinant human IgA1-Fc CH2-CH3-TP, wild type (human rIgA1-Fc) C471S”, the other: Distribution (%), poly-hu-rIgA share of SEC AUC [1] is reported as 4%.
Substance “recombinant rat IgA-Fc segment CH2-CH3-TP, wild type (rat rIgA) C311S” has an other: Distribution (%), poly-rIgA share of SEC AUC [2] of 28%.
In the case of “recombinant rat IgA-Fc segment CH2-CH3-TP, wild type (rat rIgA) C311S; C471S”, the other: Distribution (%), poly-rIgA share of SEC AUC [3] is reported as 1.5%.
Work on “recombinant rat IgA-Fc segment CH2-CH3-TP, wild type (rat rIgA) C471S” yielded an other: Distribution (%), poly-rIgA share of SEC AUC [4] of 2.5%.
